Experimental data from the DeepSol protein solubility set.

Experiment: soluble on expression in E. coli; label from the status in PepcDB or PDB records

GMTNVGRPIETHAITVGQGSDARSIAALVRAPAQDERPTCIWLGGYRSDMTGTKALEMDDLAASLGVGAIRFDYSGHGASGGAFRDGTISRWLEEALAVLDHFKPEKAILVGSSMGGWIALRLIQELKARHDNPTQVSGMVLIAPAPDFTSDLIEPLLGDRERAELAENGYFEEVSEYSPEPNIFTRALMEDGRANRVMAGMIDTGCPVHILQGMADPDVPYQHALKLVEHLPADDVVLTLVRDGDHRLSRPQDIDRMRNAIRAMIEPRP
soluble on expression in E. coli: soluble

MAEARSQPSAGPQLNALPDHSPLLQPGLAALRRRAREAGVPLAPLPLTDSFLLRFLRARDFDLDLAWRLLKNYYKWRAECPEISADLHPRSIIGLLKAGYHGVLRSRDPTGSKVLIYRIAHWDPKVFTAYDVFRVSLITSELIVQEVETQRNGIKAIFDLEGWQFSHAFQITPSVAKKIAAVLTDSFPLKVRGIHLINEPVIFHAVFSMIKPFLTEKIKERIHMHGNNYKQSLLQHFPDILPLEYGGEEFSMEDICQEWTNFIMKSEDYLSSISESIQ
soluble on expression in E. coli: soluble

MGSDKIHHHHHHMNREVFITCAVTGSGGSQDRSPHVPRSPKQIADSAIDAAKAGAAIVHCHVRDPETGKPRRDVHLYREVTERIRDANVDVVLNLTAGMGGDMVFGSPEAPLPLNEKGTDMGGATNRMEHVRQCLPEICTLDCGTMNFAEADYVMTNTPGMLRAMGGMMTALGVKPEIEAFDTGHLWFAKQLVEEKVLNPDALVQLCMGVPWGAPDDLNTFMAMVNNVPSTWNWSAFAIGRNQMAYAAAAVLAGGNVRVGLEDNLWLDKGVLATNAQLVERAASIVTNLGARILGPEEVRKKLNLTKRAPIAAAA
soluble on expression in E. coli: not soluble

MRRCIELAKNGLCNVAPNPMVGAVIVCDGLIIGEGYHIRCGEAHAEVNAIRSVKDKSLLSRSTIYVSLEPCSHYGKTPPCADLIIEKQIPRIVIGCQDPFSQVAGRGIQKLRDAGREVTVGVLEKECRYLIRRFITFNTLHRPFITLKWAESADHFIDVERTDGNPVVLSSPLTSMLVHKKRAETDAIMVGRRTALLDNPSLTVRNWYGRNPVRIVLDRALSLPHSLRLFDGEVPTIVFTAEKHPDKKNVTYRTIEFTQDILPQIMKVLYQQKIQSLLVEGGSQLLQSFIDAELWDEVYIEKCPCKLNSGVKAPEISDNFSYSTEKHFDRQIWHYVFEK
soluble on expression in E. coli: not soluble

MKWLLLITLSLYSFIVQSAPCGLTNVGEQRGTYILKPLSMKGNLTAEKIENTGNIIECADLQETTNAIKVHFLTQNALRFKVGSRHYIINFPFESDGKKNSASREVIL
soluble on expression in E. coli: soluble

MKELKQAEQIRTWVQSILTDESSGHDWHHVSRVADLAAYIGEKEKADLFIVETAALVHDLIDVKLPDTVRLSVSEVYDQLVFFGVGKENADRVIHIITRMSFRDRGKLAKEPLSIEGKAVQDADRLDAIGAVGIARAFMFAGAKGHGLYGDEQSAYAHFFHKLLRLKDMMNTDTARELAEERHNFMLQFVRQLEKDIPGIDAETSLEHHHHHH
soluble on expression in E. coli: soluble

MPHSCSGNYNSCAYIYGVHICKVLLILRAQNVYRNGGFMGEQLIISISREYGSGGHEIARKLADRLELAFYDRCMLDEIAEQMNADVSDFHKYDEKPGNRLLSRRVGNHTNSYEEIIAQFQFDYIRKKAESGESFVVVGRCSENVLKDYDCLISVFVTGDKEHKIQRVMEHFDLSESEAYTKMRRHDRTRKQYHNRYSEGKWGDATYYDMCINSSPLGIEKTVNVLENYVKERTGNQEL
soluble on expression in E. coli: not soluble

TLPFRIGHGFDLHRLEPGYPLIIGGIVIPHDRGCEAHSDGDVLLHCVVDAILGALGLPDIGQIFPDSDPKWKGAASSVFIKEAVRLMDEAGYEIGNLDATLILQRPKISPHKETIRSNLSKLLGADPSVVNLKAKTHEKVDSLGENRSIAAHTVILLMKK
soluble on expression in E. coli: soluble

MGSDKIHHHHHHMKITPIAFESLGVRSQATLIETKDLRVLVDPAVSLAPRRYNLPPHQREVDRLTQLAKVLVDVAKDVDVIVVSHYHYDHHDPGYVIPTDIYKNKIVFLKDPQNMINNSQKYRRAPRFLRSIKDKPRKIEIADGKTFEFNTTTISFSPAVPHGADERLGYVIQVAISDKDSTVIFTSDIEGAPKDVHLKFTKEKMPTVIIIDGPLSYLLGRALKEEELENSIRNMEEIIKNGLETVIIDHHVLRDINYAQVLKPVHDIAKDLGVRVTTAAEYLNLEPLILEARRKELYKEDNRPAKIPRGLANLLNAGDG
soluble on expression in E. coli: not soluble

AEIYNKDGNKLDLYGKIDGLHYFSDDKDVDGDQTYMRLGVKGETQINDQLTGYGQWEYNVQANNTESSSDQAWTRLAFAGLKFGDAGSFDYGRNYGVVYDVTSWTDVLPEFGGDTYGSDNFLQSRANGVATYRNSDFFGLVDGLNFALQYQGKNGSVSGEGATNNGRGALKQNGDGFGTSVTYDIFDGISAGFAYANSKRTDDQNQLLLGEGDHAETYTGGLKYDANNIYLATQYTQTYNATRAGSLGFANKAQNFEVAAQYQFDFGLRPSVAYLQSKGKDLNGYGDQDILKYVDVGATYYFNKNMSTYVDYKINLLDDNSFTRSAGISTDDVVALGLVYQF
soluble on expression in E. coli: soluble

MRHLFASLAFMLATSTVAHAEKLTLEAITGPLPLSGPTLMKPKVAPDGSRVTFLRGKDSDRNQLDLWSYDIGSGQTRLLVDSKVVLPGTETLSDEEKARRERQRIAAMTGIVDYQWSPDAQRLLFPLGGELYLYDLKQEGKAAVRQLTHGEGFATDAKLSPKGGFVSFIRGRNLWVIDLASGRQMQLTADGSTTIGNGIAEFVADEEMDRHTGYWWAPDDSAIAYARIDESPVPVQKRYEVYADRTDVIEQRYPAAGDANVQVKLGVISPAEQAQTQWIDLGKEQDIYLARVNWRDPQHLSFQRQSRDQKKLDLVEVTLASNQQRVLAHETSPTWVPLHNSLRFLDDGSILWSSERTGFQHLYRIDSKGKAAALTHGNWSVDELLAVDEKAGLAYFRAGIESARESQIYAVPLQGGQPQRLSKAPGMHSASFARNASVYVDSWSNNSTPPQIELFRANGEKIATLVENDLADPKHPYARYREAQRPVEFGTLTAADGKTPLNYSVIKPAGFDPAKRYPVAVYVYGGPASQTVTDSWPGRGDHLFNQYLAQQGYVVFSLDNRGTPRRGRDFGGALYGKQGTVEVADQLRGVAWLKQQPWVDPARIGVQGWSNGGYMTLMLLAKASDSYACGVAGAPVTDWGLYDSHYTERYMDLPARNDAGYREARVLTHIEGLRSPLLLIHGMADDNVLFTNSTSLMSALQKRGQPFELMTYPGAKHGLSGADALHRYRVAEAFLGRCLKP
soluble on expression in E. coli: soluble

MHQNNGDYRVRGSRPSRSSEHAGPSLHCKKPEGSIRDTLRLSGSFKIYKEPMPELVCDIHLEKLAENIQKYSKIEERKYRENDMHVNDDSHSSDSRPTSDNEVSSSSDRNNDEPSVRRKRKSVENMCHEREHHGDHLQMQVASVIASNLGPMVEIVEKKLLQHKNAEKLLNDGREVFIKTLEEHNQKKEKVERKAKLVAIPPMKARNRRSSRNSLVYIDGPSTSESHSSMVQQVPIIDNIPEVLENETAVCSISSEADHNSRGIKDNQEFAIEISGEVSRTDDICDDFAVFLKKCTVLLTKFIDSYYDFRSTMKLKPEDAIEHWSAERLTKEEHAARVTRFDVAIARATRVQYNIDIKLLTKQSFVFDDDREAAINKRLARIERFVNEQHEEINWFCFSNFSLMDIGETKDRYCLGDFYDKAISMIPKVKDVPSVVQLAKECKMWSAFERILKQYNFEPLKVFEELQKMLEKDYFLPKGKIFCQFLLNVAQLFSYDVVKNEWSCIKQIDGTLFSGVPFDRDGNLLPTSQNSPTECSS
soluble on expression in E. coli: not soluble

MGHHHHHHSHAWSGVLEWQEKPKPASVDANTKLTRSLPCQVYVNHGENLKTEQWPQKLIMQLIPQQLLTTLGPLFRNSRMVQFHFTNKDLESLKGLYRIMGNGFAGCVHFPHTAPCEVRVLMLLYSSKKKIFMGLIPYDQSGFVNGIRQVITNHKQVQQQKLEQQQRGMGGQQAPPGLGPILEDQAR
soluble on expression in E. coli: soluble

MSKYNAKKVEYKGIVFDSKVECEYYQYLESNMNGTNYDHIEIQPKFELLPKLDKQRKIEYIADFALYLDDKLIEVIDIKGMPTEVAKLKAKIFRHKYRNIKLNWICKAPKYTGKTWITYEELIKARRERKREMK
soluble on expression in E. coli: not soluble

MGSDKIHHHHHHALSSDYFTTTPQVLEAVGGKVPVTINGKFPEKYFKKNAVVEVTPVLKWEGGQVKGQPAVFQGEKVEGNDQTISYKMGGNYTMKTTFDYVPEMAKSELYLEFNAKVGKKTIAIPAVKIADGVISTSELINNTLSSANPALGDDAFQRIIKEAHNANIMFLIQQANIRSSELKTAKEFNKEVANVNDAENKKISNIEISAYASPDGGVKLNTGLAENREGNTTKLINKDLKKAKIEVPVDAKYTAQDWEGFQELVSKSNIQDKELILRVLSMYQDPEQRETEIKNISSVYKTLADEILPQLRRSRLTLNYEIIGKSDEEIANLAATDPKQLNVEEILYAATLTNDPAKKADIYTKASQQFPNDYRAFNNLGKLAYQAGDLDKAQSYVKKAESIKSAPEVNMNLGLIALAKGDKAAAESYLGKAAGAKELNETLGNLYVAQGQYERAVNAFGDTKTNSAALAQILAKDYNKAKNTLAGIATPDAYTDYLMAVLGARTNNTSMLTSSLKSAVAKNPALAKKAATDLEFAKYYTNADFMSIVK
soluble on expression in E. coli: not soluble

MGSDKIHHHHHHMPPLSIPADQYLRLSDKSQVRCYRSHFSDRMEMLAPPKNVAAYLDHHQGWFQRCAAPMEVKALDDQSYLLTLGRFGNFGFEVEPCIGLKLLPQQQGLYQIINVDLTHQDLPLCDHYDVDFKAGLKLEPSETEASNTVQQTTIVNWDLDLSVWIQLPKVITLLPDGLVQTSGDQLLRQVVRQISRRLTWKVQEDFHATHGLTCPPRRHAAF
soluble on expression in E. coli: not soluble

MRWNICVVGAGKIGQMIAALLKTSSNYSVTVADHDLAALAVLNRMGVATKQVDAKDEAGLAKALGGFDAVISAAPFFLTPIIAKAAKAAGAHYFDLTEDVAATNAVRALAEDSQT
soluble on expression in E. coli: soluble

MSLEAAPAGSGPLRRTFLVPEIKSLDQYDFSRAKAAASLAWVLRAAFGGAEHVPPELWEPFYTDQYAQEHVKPPVTRLLLSAELYCRAWRQALPQLEPSPSPSALLALLARRGTVPSLPEHPVREADLKHQPILMGAHLAVIDALMVAFSFEWTKTLPGPLALSSLEHKLLFWVDTTVRRLQEKTEQEAAQRASPAAPLDGASPAQPSIRYRKDRAIARRAPCFPNVTTLQDLASGAALAATIHCYCPQLLRLEEVCLKDPMSVADSLYNLQLVQDFCASHLPRGCPLSLEDLLYVPPPLKVNLVVLLAEMYMCFEVLKPDFVQAKDLPDGHAVSPRNTETVPSQNNSGSSSSPSRLPGSRERDWENGSNASSPASVPEYTGPRLYKEPSAKSNKFIIHNALSHCCLAGKVNEPQKNRILEEIEKSKANHFLILFRDSSCQFRALYTLSGETEELSRLAGYGPRTVTPAMVEGIYKYNSDRKRFTQIPAKTMSMSVDAFTIQGHLWQSKKPTTPKKGGGTPKEGHHHHHH
soluble on expression in E. coli: soluble

MSSASELMRCSGRWTLFRRTLPRLRKCVGVGETSGREKPPNSPNSSTLPMMTKTELSPPQIHINFIFFLPKNVFILKNCSL
soluble on expression in E. coli: not soluble

AECSVDIQGNDQMQFNTNAITVDKSCKQFTVNLSHPGNLPKNVMGHNWVLSTAADMQGVVTDGMASGLDKDYLKPDDSRVIAHTKLIGSGEKDSVTFDVSKLKEGEQYMFFCSELCGINHALMKGTLTLK
soluble on expression in E. coli: soluble

MKEARKRMVKRAVQEIKDGMNVNLGIGMPTLVANEIPDGVHVMLQSENGLLGIGPYPLEGTEDADLINAGKETITEVTGASYFDSAESFAMIRGGHIDLAILGGMEVSEQGDLANWMIPGKMVKGMGGAMDLVNGAKRIVVIMEHVNKHGESKVKKTCSLPLTGQKVVHRLITDLAVFDFVNGRMTLTELQDGVTIEEVYEKTEADFAVSQSVLNS
soluble on expression in E. coli: soluble
